Assay results: US20120093826A1
Numbering of substitutions follows the chain as printed.

B1: PTA021_A1 human monoclonal antibody (antibody, V domains shown)
VH: QITLKESGPTLVKPTQTLTLTCTFSGFSLNTSGVGVGWIRQPPGKALEWLALIYWDDDKRYSPSLKSRLTITKDTSKNQVVLTMTNMDPVDTATYYCAHRRVEWVALAGNWFDPWGQGTLVTVSS
VL: DIQMTQSPSSLSASVGDRVTITCRASQGISSWLAWYQQKPEKAPKSLIYGASSLQSGVPSRFSGSGSGTDFTLTISNLQPEDFATYYCQQYNSYPLTFGGGTKVEIK
B2: PTA021_A2 human monoclonal antibody (antibody, V domains shown)
VH: B1 VH with N30S, T94I, V105F, T119S
VL: B1 VL with G50A, N77S
B3: PTA021_A3 human monoclonal antibody (antibody, V domains shown)
VH: B1 VH with N30S, A106T
VL: B1 VL with G50A

How the values were obtained:
[1] = target: human CADM1 (cell surface, on CADM1-expressing human tumour cells and tissues) (human) (UniProt Q9BY67); assay: flow cytometry histogram on SKMEL28 cells, isotype control
Sequence of UniProt Q9BY67 (Q9BY67 45-442): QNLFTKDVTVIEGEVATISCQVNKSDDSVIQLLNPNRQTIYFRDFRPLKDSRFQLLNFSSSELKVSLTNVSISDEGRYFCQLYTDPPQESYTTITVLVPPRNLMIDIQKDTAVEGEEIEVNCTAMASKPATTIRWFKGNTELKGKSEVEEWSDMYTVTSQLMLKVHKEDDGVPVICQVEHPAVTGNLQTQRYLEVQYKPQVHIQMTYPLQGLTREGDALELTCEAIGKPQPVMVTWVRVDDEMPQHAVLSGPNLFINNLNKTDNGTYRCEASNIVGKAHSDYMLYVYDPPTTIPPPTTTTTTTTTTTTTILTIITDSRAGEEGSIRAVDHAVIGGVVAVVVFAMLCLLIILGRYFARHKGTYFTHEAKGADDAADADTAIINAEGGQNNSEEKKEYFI

[2] = target: human CADM1 (cell surface, on CADM1-expressing human tumour cells and tissues) (human) (UniProt Q9BY67); assay: cell-based or functional assay
[3] = target: human CADM1 (cell surface, on CADM1-expressing human tumour cells and tissues) (human) (UniProt Q9BY67); assay: flow cytometry histogram on 786-0 cells, isotype control
[4] = target: human CADM1 (cell surface, on CADM1-expressing human tumour cells and tissues) (human) (UniProt Q9BY67); assay: flow cytometry on NCI-H69 cells expressing human CADM1
[5] = target: human CADM1 (cell surface, on CADM1-expressing human tumour cells and tissues) (human) (UniProt Q9BY67); assay: flow cytometry (FGMI) titration on SkMel28 melanoma cells; table under the plot
[6] = target: human CADM1 (cell surface, on CADM1-expressing human tumour cells and tissues) (human) (UniProt Q9BY67); assay: flow cytometry (FACS Geomean) titration on A549 non-small cell lung cancer cells; the table under the plot prints no unit, nM is the unit of the x axis 'Ab conc in nM'
[7] = target: human CADM1 (cell surface, on CADM1-expressing human tumour cells and tissues) (human) (UniProt Q9BY67); assay: flow cytometry (FGMI) titration on 786-O renal cell carcinoma cells; table under the plot
[8] = target: human CADM1 (cell surface, on CADM1-expressing human tumour cells and tissues) (human) (UniProt Q9BY67); assay: flow cytometry histogram on SKMEL28 cells
[9] = target: human CADM1 (cell surface, on CADM1-expressing human tumour cells and tissues) (human) (UniProt Q9BY67); assay: flow cytometry (FACS Geomean) titration on SKOV3 ovarian cancer cells; the table under the plot prints no unit, nM is the unit of the x axis 'Ab conc in nM'
[10] = target: human CADM1 (cell surface, on CADM1-expressing human tumour cells and tissues) (human) (UniProt Q9BY67); assay: flow cytometry (FACS Geomean) titration on A549 non-small cell lung cancer cells
[11] = target: human CADM1 (cell surface, on CADM1-expressing human tumour cells and tissues) (human) (UniProt Q9BY67); assay: flow cytometry histogram on 786-0 cells

Row | Molecule | number in the histogram legend box (name not given; axis FL2-H) [1] | % Specific Lysis: DMS79 (ADCC) [2] [%] | % Specific Lysis: NCI-H69 (ADCC) [2] [%] | number in the histogram legend box (name not given; axis FL2-H) [3] | EC50 [4] [nM] | EC50 [5] [nM] | EC50 [6] [nM] | EC50 [7] [nM] | number in the histogram legend box (name not given; axis FL2-H) [8] | EC50 [9] [nM] | EC50 (read off the curve) [10] [nM] | number in the histogram legend box (name not given; axis FL2-H) [11]
1 | Isotype Control (antibody) | 10.5 | 2.96 | 3.3 | 8.39 | – | – | – | – | – | – | – | –
2 | B1 | – | 37.8 | 24.6 | – | 0.588 | – | – | – | – | – | – | –
3 | B2 | – | 34.7 | 15.9 | – | 0.667 | – | – | – | – | – | – | –
4 | B3 | – | 61 | 29.8 | – | 0.674 | 4.42 | 3.65 | 3.25 | 25.9 | 12.6 | 4 | 42.6
